Results: patent US20230125173A1

Columns and labels:
TGFβ1 (R&D systems) = TGFβ1 (R&D systems) (UniProt P01137); assay: cell-based or functional assay
[1] = biological target: IL2Rβ and common γ chain on 32Dβ cells; assay: cell-based or functional assay

Sequence of UniProt P01137 (P01137 279-390 limits assumed): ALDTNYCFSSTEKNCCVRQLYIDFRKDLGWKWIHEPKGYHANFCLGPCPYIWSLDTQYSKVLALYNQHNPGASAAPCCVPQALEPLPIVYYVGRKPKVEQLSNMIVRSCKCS

| IC50, inhibition of TGFβ1 (0.1nM stock) activity in HEK-Blue TGFβ reporter cells, QUANTI-Blue OD 620-655 nM (TGFβ1 (R&D systems)) | EC50, 32Dβ cell proliferation (WST1, absorbance at 450 nM) [1] | Substance |
| --- | --- | --- |
| 461 pM | – | TGFR-Fc (R&D Systems) (Fc fusion) |
| – | 10.6 pM | recombinant IL-15 (from UniProt P40933 49-162) (ligand) |
